Measured values: article PMC7784082 (Cell metabolism, 2019)

Target: TAZ, mouse, expressed from plasmid (HA-TAZ WT) (mouse, UniProt Q9EPK5 1-395)
Assay: co-IP

TAZ, mouse, expressed from plasmid (HA-TAZ WT), sequence (Q9EPK5 whole entry): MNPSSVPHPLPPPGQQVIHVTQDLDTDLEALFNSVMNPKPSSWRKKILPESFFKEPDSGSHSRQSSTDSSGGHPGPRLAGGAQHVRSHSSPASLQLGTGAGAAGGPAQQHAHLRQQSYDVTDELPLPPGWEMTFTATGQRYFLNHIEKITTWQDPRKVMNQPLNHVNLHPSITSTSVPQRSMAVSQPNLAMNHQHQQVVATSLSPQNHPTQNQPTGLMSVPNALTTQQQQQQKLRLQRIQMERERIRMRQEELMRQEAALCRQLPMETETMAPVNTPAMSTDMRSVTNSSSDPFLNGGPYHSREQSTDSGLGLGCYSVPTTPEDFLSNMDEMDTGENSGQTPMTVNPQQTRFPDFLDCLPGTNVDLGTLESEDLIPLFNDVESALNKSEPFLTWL

B1: PPARγ S112D (phospho-mimic mutant of mouse PPARgamma 2) (natural protein, UniProt P37238-1 1-505, looked up)
chain: MGETLGDSPVDPEHGAFADALPMSTSQEITMVDTEMPFWPTNFGISSVDLSVMEDHSHSFDIKPFTTVDFSSISAPHYEDIPFTRADPMVADYKYDLKLQEYQSAIKVEPADPPYYSEKTQLYNRPHEEPSNSLMAIECRVCGDKASGFHYGVHACEGCKGFFRRTIRLKLIYDRCDLNCRIHKKSRNKCQYCRFQKCLAVGMSHNAIRFGRMPQAEKEKLLAEISSDIDQLNPESADLRALAKHLYDSYIKSFPLTKAKARAILTGKTTDKSPFVIYDMNSLMMGEDKIKFKHITPLQEQSKEVAIRIFQGCQFRSVEAVQEITEYAKNIPGFINLDLNDQVTLLKYGVHEIIYTMLASLMNKDGVLISEGQGFMTREFLKNLRKPFGDFMEPKFEFAVKFNALELDDSDLAIFIAVIILSGDRPGLLNVKPIEDIQDNLLQALELQLKLNHPESSQLFAKVLQKMTDLRQIVTEHVQLLHVIKKTETDMSLHPLLQEIYKDLY
  fold change of association against WT PPARγ: ~2 fold
